Data on two molecules can be found in paper PMC2982130 (Molecular Biology of the Cell, 2010).

The data set “cross-linking + co-IP” deals with the molecule itself. Description: cross-linking + co-IP.
The target in data set [1] is T1, Recombinant human BMPRII/Fc chimera protein (human, UniProt Q13873 27-150).
T1 sequence: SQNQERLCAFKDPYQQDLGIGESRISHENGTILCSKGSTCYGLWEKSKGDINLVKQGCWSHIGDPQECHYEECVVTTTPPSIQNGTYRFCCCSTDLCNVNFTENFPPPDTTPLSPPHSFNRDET
Description: SPR. A general note: Surface plasmon resonance follows binding to a sensor surface in real time, without labels.

B1: 125I-labeled recombinant human BMP4 (ligand)
chain: SPKHHSQRARKKNKNCRRHSLYVDFSDVGWNDWIVAPPGYQAFYCHGDCPFPLADHLNSTNHAIVQTLVNSVNSSIPKACCVPTELSAISMLYLDEYDKVVLKNYQEMVVEGCGCR
modifications: 125I (radioiodinated, Chloramine T method)
Usually stoichiometry N stands for a count of units in the complex or per binding partner. B1: the “stoichiometry N” value in the data set “cross-linking + co-IP” turned out to be 2.

B2: Recombinant human BMP2 (bone morphogenetic protein 2) (ligand)
chain: QAKHKQRKRLKSSCKRHPLYVDFSDVGWNDWIVAPPGYHAFYCHGECPFPLADHLNSTNHAIVQTLVNSVNSKIPKACCVPTELSAISMLYLDENEKVVLKNYQDMVVEGCGCR
The term Kd denotes the equilibrium constant for the complex coming apart. On to B2, for which the Kd in data set [1] was 164 nM.
